The target of this data set is T1, CcpA-Ile19 (evolved, 445C1) (Lactococcus lactis MG1363 (evolved …, UniProt A2RJC5 1-332, M19I)).
T1 sequence: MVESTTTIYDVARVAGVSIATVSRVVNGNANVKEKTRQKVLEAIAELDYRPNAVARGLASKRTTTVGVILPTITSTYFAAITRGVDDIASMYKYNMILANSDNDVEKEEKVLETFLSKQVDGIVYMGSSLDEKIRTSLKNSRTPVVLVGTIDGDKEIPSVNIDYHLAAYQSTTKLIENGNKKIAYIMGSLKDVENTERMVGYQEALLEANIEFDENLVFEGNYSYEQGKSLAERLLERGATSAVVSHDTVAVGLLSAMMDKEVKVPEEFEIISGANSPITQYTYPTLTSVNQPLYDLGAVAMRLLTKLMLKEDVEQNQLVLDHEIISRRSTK
As to the kind of experiment: EMSA; 100-800 nM CcpA, 4 nM DNA; affinity increased vs Met19, least pronounced; EMSA: 20 mM Tris-HCl pH 8, 100 mM KCl, 10 mM MgCl2, 1 mM EDTA, 1 mM DTT, 5% glycerol, 40 ug/ml BSA, 4 nM Cy3-DNA, 30 C 20 min; 7.5% native PAGE in TBE. The following applies: protein: recombinant; tags: N-terminal 6xHis (pQE30); chain copies: 2; label: 5'-Cy3 on (+) strand; blunt. A general note: A gel shift assay detects complexes by their altered migration in electrophoresis.

The source of these data is PMC6327505, “Adaption to glucose limitation is modulated by the pleotropic regulator CcpA, independent of selection pressure strength”.

B1: mtlD cre (dsDNA)
DNA 1: ACCACAATGTAAAAGCTTACAATTGCT
DNA 2: AGCAATTGTAAGCTTTTACATTGTGGT
As to B1, the binding result is reported as “binds”.
